In patent US8487082B2, “Synthetic scFv analogue to the 6313/G2 (anti angiotensin II type 1 receptor) monoclonal antibody variable regions” (Queen Mary & Westfield College, priority 2008, dated 2013):

Assays:
[1] = target: T1, antigenic peptide […] (AT1 receptor) (Rattus norvegicus, UniProt P25095); test: Antigen ELISA during panning of scFv library; format: binding
T1 construct: 96 well plates coated with the original antigenic peptide ([…]
Method: The 6313/G2 mouse monoclonal antibody hybridoma was grown as previously described (Barker et at J. Mol. Endocrinol. 11 241-245 (1993)). A pool of cDNA derived from mRNA was used to obtain heavy and light chains by PCR. A linker fragment encoding (Gly4Ser)3 was used to assemble the scFv library of inserts and a phage display library was created by directionally cloning these inserts into the pCANTAB 5 E phagemid vector (Amersham Pharmacia, High Wycombe, UK). An E-tag for the expressed sequence GAPVPYPDPLEPR (SEQ ID NO: 11) was included in this vector and used in subsequent panning and purification steps. The phagemid library was then used to transform TG1 E. coli, and phagemid rescue was carried out using the M13K07 helper phage followed by several rounds of panning Positive expressing clones were identified by ELISA using 96 well plates coated with the original antigenic peptide (EDGIKRIQDD; SEQ ID NO:1) and an anti-E-tag antibody (Amersham Pharmacia) detected using an HRP-linked secondary antibody. One particular clone was taken forward for expression and purification and functional assessment on the basis of giving the highest signal in the antigen ELISA.

MCF-7 cell xenografts = test: In vivo xenograft assay; details: nu/nu mice, 13 nmol/kg
Method: Mice were injected s.c. on the right-flank, with 150 μl sterile PBS containing 7.5×10^6 MCF-7 cells. Tumour cells were allowed to grow for 4 weeks without hormone support, thereafter mice received weekly s.c. injections of 17β-oestradiol valerate (0.1 mg/Kg body weight), in sesame oil (Kasukabe et al., Breast Cancer Res. 7(6) R1097-110 (2005)) for a further 8 weeks. Animals were monitored daily for general health, and body weights were measured twice-weekly. Tumour size was measured 3 times per week with slide callipers, and volumes were calculated as (L×W^2)/2, where L and W are the major and minor diameters, respectively. Once tumour volumes reached 150 to 200 mm^3, mice were randomized to treatment and control groups of 8 to 10 per group. Mice were treated by subcutaneous injections of R6313/G2 in sterile PBS (0.1 ml) at doses of 0.4 mg/kg (13 nmol/kg), 0.8 mg/kg (27 nmol/Kg), and 1.36 mg/kg (45.3 nmol/kg) body weight, twice per day for seven days. Control mice received sterile PBS. […] Relative body weights (%) were calculated as (Wt/Wi)×100, where Wt is the body weight at any given time and Wi is the body weight at treatment initiation. Net tumour volume was calculated as Vt-Vi, where Vt is the tumour volume at any given time and Vi is the tumour volume at the start of treatment, and expressed as a percentage of Vi.

B1: R6313/G2: murine scFv analogue of the 6313/G2 anti-AT1 receptor monoclonal antibody variable domains, SEQ ID NO:15 (protein)
scFv: YAAQPAMAQVKLQQSGPELEKPGASVKISCKASGYSFTGYNMNWVKQSNGKSLEWIGNIDPYYGGTTYNQKFKGKATLTVDKSSSTAYMQLKSLTSEDSAVYYCAREVDYWGQGTTVTVSSGGGGSGGGGSGGGGSDIELTQSPASLAVSLGQRATISYRASKSVSTSGYSYMHWNQQKPGQPPRLLIYLVSNLESGVPARFSGSGSGTDFTLNIHPVEEEDAATYYCQHIRELTRSEGTKLEIKRAAAGAPVPY
modifications: 12D
Question: Which results are given for B1?
Answer: activity of clones (preliminary studies) [1]: highest activity; cancer cell growth, xenograft tumours (MCF-7 cell xenografts): significantly inhibited cancer cell growth
